US20130202618A1 (PROGENICS PHARMACEUTICALS, published 2013)

Legend:
Assay in all cases: cell-based or functional assay
[1] = target: T1, C. difficile toxin A from strain Montreal 7.1 (ribotype 027, BI/NAP1/027) (Clostridium difficile strain Montreal …)
[2] = target: T2, C. difficile toxin A from strain Pitt 45 (ribotype 027, BI/NAP1/027) (Clostridium difficile strain Pitt 45)
[3] = target: T3, C. difficile toxin A from strain CCL678 (ribotype 027, BI/NAP1/027) (Clostridium difficile strain CCL678)
[4] = target: T4, C. difficile toxin A from strain CD196 (ribotype 027, BI/NAP1/027) (Clostridium difficile strain CD196)
[5] = target: T5, C. difficile toxin A from strain HMC553 (ribotype 027, BI/NAP1/027) (Clostridium difficile strain HMC553)
[6] = target: T6, C. difficile toxin A from strain Montreal 5 (ribotype 027, BI/NAP1/027) (Clostridium difficile strain Montreal 5)
[7] = target: C. difficile toxin A from strain 545 (ATCC 43596, ribotype 012) (Clostridium difficile strain 545 (ATCC …))
[8] = target: C. difficile toxin A from strain UVA17 (ribotype 002) (Clostridium difficile strain UVA17)
[9] = target: T1, C. difficile toxin A from strain …; remark: listed apart in the source
[10] = target: C. difficile toxin A from strain Pitt 07 (ribotype 078) (Clostridium difficile strain Pitt 07)
[11] = target: Clostridium difficile toxin A (strain VPI 10463) (Clostridium difficile strain VPI 10463, UniProt P16154 1-2710)
[12] = target: T2, C. difficile toxin A from strain Pitt …; remark: listed apart in the source
[13] = target: C. difficile toxin A from strain 630 (ATCC BAA-1382, ribotype 012) (Clostridium difficile strain 630)
[14] = target: T3, C. difficile toxin A from strain CCL678 …; remark: listed apart in the source
[15] = target: T4, C. difficile toxin A from strain CD196 …; remark: listed apart in the source
[16] = target: C. difficile toxin A from strain UVA30/TL42 (ribotype 014) (Clostridium difficile strain UVA30/TL42)
[17] = target: C. difficile toxin A from strain MH5 (ribotype 001) (Clostridium difficile strain MH5)
[18] = target: C. difficile toxin A from strain Pitt 2 (ribotype 001) (Clostridium difficile strain Pitt 2)
[19] = target: C. difficile toxin A from strain CCL14137 (ribotype 001) (Clostridium difficile strain CCL14137)
[20] = target: T5, C. difficile toxin A from strain HMC553 …; remark: listed apart in the source
[21] = target: T6, C. difficile toxin A from strain …; remark: listed apart in the source
[22] = target: T7, Clostridium difficile toxin B (strain VPI 10463) (Clostridium difficile strain VPI 10463, UniProt P18177 2-2366)
[23] = target: T7, Clostridium difficile toxin B (strain …); remark: listed apart in the source

T7 sequence (P18177 2-2366): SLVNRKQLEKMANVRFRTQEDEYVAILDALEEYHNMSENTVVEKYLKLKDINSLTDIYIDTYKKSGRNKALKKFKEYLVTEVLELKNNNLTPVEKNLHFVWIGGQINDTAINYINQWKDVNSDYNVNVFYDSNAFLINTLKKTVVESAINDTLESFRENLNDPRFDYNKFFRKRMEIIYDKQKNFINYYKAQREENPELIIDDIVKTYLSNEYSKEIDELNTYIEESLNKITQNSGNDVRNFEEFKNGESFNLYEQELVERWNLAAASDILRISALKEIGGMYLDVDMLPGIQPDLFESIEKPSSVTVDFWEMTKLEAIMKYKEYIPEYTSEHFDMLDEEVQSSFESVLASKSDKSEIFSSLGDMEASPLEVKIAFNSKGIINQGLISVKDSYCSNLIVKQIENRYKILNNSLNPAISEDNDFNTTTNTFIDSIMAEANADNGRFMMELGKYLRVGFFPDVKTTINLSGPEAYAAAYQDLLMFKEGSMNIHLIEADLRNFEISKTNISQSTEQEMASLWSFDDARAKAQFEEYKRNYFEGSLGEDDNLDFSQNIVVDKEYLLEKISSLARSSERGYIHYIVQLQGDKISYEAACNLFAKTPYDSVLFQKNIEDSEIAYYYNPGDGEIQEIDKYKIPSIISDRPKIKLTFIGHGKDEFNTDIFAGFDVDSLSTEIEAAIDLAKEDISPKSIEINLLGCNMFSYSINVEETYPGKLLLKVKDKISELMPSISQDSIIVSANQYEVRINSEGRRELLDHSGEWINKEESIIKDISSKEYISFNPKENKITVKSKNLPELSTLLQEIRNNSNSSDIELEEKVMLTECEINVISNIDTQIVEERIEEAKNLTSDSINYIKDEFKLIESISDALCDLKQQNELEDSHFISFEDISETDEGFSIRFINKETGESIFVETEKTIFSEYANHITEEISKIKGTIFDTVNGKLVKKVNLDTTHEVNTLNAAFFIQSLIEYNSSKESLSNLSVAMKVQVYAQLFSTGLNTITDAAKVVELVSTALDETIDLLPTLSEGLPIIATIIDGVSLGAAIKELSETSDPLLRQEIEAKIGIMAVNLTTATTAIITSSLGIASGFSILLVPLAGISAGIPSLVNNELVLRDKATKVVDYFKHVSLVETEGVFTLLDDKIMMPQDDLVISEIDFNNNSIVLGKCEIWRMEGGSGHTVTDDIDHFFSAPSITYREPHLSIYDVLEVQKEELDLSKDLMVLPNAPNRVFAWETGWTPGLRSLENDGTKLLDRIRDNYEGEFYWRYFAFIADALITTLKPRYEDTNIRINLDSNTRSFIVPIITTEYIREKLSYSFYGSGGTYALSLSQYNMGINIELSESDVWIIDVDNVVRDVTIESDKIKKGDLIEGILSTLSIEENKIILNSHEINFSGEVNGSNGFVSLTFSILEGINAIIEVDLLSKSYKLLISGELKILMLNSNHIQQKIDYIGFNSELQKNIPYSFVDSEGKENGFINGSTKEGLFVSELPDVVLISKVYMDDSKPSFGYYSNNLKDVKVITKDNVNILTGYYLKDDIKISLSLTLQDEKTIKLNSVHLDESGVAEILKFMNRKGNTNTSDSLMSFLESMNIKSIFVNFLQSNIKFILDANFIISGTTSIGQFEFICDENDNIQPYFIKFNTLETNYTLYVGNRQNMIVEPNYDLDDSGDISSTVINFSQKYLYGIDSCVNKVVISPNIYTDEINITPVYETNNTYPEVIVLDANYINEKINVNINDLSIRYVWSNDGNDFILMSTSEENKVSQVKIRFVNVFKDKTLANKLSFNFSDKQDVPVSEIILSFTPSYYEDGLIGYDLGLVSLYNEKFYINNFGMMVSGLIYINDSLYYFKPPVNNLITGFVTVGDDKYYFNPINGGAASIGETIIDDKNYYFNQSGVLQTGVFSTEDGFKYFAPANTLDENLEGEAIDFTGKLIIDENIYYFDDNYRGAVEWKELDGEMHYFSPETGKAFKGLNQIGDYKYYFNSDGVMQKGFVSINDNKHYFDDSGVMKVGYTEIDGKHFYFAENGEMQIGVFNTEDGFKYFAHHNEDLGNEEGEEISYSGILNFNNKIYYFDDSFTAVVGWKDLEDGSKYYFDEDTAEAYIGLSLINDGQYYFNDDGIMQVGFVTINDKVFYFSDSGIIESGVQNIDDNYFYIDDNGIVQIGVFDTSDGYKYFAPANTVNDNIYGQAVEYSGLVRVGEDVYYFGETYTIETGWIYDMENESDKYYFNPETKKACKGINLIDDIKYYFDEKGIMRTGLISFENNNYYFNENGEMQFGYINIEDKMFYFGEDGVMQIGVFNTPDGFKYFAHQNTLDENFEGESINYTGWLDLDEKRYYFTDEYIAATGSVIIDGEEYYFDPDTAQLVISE
Clostridium difficile toxin A (strain VPI 10463), sequence (P16154 whole entry): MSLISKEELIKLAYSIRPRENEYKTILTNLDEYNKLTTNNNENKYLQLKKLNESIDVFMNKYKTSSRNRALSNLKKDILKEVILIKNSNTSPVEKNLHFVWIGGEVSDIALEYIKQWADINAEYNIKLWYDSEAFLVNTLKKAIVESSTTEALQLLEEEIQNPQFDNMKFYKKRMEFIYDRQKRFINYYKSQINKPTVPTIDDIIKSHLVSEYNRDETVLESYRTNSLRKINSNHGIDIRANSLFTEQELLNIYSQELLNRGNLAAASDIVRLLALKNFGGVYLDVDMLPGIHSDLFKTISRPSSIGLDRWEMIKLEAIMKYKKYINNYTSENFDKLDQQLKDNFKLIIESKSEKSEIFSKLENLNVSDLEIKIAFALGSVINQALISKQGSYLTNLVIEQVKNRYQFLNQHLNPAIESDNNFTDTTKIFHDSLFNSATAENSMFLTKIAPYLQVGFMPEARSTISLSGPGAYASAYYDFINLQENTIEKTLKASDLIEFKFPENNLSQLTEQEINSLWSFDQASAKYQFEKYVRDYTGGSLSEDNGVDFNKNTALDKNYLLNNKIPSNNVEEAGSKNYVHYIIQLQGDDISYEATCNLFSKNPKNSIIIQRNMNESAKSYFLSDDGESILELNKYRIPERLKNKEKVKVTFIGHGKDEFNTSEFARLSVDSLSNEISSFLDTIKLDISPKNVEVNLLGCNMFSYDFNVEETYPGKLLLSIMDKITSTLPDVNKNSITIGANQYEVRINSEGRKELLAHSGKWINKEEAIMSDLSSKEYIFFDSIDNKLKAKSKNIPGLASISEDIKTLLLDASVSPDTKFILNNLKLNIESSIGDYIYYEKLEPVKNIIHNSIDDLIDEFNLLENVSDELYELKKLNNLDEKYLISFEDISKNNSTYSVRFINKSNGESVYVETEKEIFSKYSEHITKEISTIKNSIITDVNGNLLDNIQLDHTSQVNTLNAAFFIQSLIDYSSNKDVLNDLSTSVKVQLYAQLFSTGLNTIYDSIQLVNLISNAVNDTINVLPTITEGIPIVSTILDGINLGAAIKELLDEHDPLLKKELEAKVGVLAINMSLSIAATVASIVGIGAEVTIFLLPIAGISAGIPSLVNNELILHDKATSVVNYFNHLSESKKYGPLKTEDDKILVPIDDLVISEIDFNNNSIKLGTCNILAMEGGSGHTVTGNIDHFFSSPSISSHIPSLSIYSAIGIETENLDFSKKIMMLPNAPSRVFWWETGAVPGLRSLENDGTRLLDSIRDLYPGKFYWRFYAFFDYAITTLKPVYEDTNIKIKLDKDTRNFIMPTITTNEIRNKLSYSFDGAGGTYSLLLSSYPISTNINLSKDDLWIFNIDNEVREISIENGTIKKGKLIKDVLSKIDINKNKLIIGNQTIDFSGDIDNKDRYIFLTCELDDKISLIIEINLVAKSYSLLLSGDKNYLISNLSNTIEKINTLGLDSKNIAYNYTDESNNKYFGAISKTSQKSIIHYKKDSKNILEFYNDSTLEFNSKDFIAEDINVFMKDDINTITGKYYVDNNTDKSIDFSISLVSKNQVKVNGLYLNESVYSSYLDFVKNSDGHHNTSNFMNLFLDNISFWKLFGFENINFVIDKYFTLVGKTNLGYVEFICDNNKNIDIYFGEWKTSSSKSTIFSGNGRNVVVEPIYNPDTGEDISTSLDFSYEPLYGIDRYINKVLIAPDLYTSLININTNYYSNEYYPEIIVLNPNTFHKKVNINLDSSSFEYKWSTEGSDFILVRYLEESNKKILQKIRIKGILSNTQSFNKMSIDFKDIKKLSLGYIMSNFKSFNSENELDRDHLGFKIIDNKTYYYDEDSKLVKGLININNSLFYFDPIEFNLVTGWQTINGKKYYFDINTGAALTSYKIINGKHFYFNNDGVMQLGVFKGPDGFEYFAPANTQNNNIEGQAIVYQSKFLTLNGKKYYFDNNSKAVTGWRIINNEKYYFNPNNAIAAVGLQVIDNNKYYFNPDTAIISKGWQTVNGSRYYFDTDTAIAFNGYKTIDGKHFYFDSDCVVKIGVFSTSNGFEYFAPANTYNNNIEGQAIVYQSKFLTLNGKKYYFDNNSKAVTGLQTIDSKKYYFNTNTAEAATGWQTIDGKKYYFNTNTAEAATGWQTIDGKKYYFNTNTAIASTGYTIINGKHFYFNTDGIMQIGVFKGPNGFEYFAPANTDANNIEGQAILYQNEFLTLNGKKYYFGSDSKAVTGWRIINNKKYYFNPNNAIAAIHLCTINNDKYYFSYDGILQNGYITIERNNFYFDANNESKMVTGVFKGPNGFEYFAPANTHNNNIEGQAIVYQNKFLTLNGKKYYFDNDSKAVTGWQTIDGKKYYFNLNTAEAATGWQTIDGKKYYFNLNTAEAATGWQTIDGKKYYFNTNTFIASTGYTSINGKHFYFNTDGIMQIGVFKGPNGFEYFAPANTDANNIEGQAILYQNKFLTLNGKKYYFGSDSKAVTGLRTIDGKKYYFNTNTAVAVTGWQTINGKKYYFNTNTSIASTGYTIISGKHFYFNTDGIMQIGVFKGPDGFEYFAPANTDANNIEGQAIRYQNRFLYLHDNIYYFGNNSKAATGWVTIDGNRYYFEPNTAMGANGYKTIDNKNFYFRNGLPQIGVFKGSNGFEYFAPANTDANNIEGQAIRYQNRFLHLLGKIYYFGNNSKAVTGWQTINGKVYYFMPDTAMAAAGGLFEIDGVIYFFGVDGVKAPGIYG

B1: humanized anti-C. difficile toxin A monoclonal antibody PA-50 (antibody, V domains shown)
VH: QVQLVQSGAEVKKPGASVKVSCKASGYTFTDYNMDWVRQAPGQRLEWIGDINPKYDIIGHNPKFMGKATITVDKSASTAYMELSSLRSEDTAVYYCARSDRGWYFDVWGQGTLVTVSS
VL: EIVLTQSPATLSLSPGERATLSCRASSSVNYMNWYQQKPGQAPRPRIYATSNLASGVPARFSGSGSGTDYTLTISSLEPEDFAVYYCQQWSSRTFGGGTKLEIKR
[1]
  neutralization activity on T-84 cells relative to comparator mAb CDA-1: > 100 fold
[2]
  neutralization activity on T-84 cells relative to comparator mAb CDA-1: > 100 fold
[3]
  neutralization activity on T-84 cells relative to comparator mAb CDA-1: > 100 fold
[4]
  neutralization activity on T-84 cells relative to comparator mAb CDA-1: > 100 fold
[5]
  neutralization activity on T-84 cells relative to comparator mAb CDA-1: > 100 fold
[6]
  neutralization activity on T-84 cells relative to comparator mAb CDA-1: > 100 fold
[7]
  EC50, neutralization of supernatant cytotoxicity on T-84 cells: 0.038 nM
[8]
  EC50, neutralization of supernatant cytotoxicity on T-84 cells: 0.026 nM
[9]
  EC50, neutralization of supernatant cytotoxicity on T-84 cells: 0.031 nM
[10]
  EC50, neutralization of supernatant cytotoxicity on T-84 cells: 0.032 nM
[11]
  EC50, neutralization of supernatant cytotoxicity on T-84 cells: 0.02 nM
[12]
  EC50, neutralization of supernatant cytotoxicity on T-84 cells: 0.043 nM
[13]
  EC50, neutralization of supernatant cytotoxicity on T-84 cells: 0.054 nM
[14]
  EC50, neutralization of supernatant cytotoxicity on T-84 cells: 0.029 nM
[15]
  EC50, neutralization of supernatant cytotoxicity on T-84 cells: 0.061 nM
[16]
  EC50, neutralization of supernatant cytotoxicity on T-84 cells: 0.051 nM
[17]
  EC50, neutralization of supernatant cytotoxicity on T-84 cells: 0.127 nM
[18]
  EC50, neutralization of supernatant cytotoxicity on T-84 cells: 0.027 nM
[19]
  EC50, neutralization of supernatant cytotoxicity on T-84 cells: 0.039 nM
[20]
  EC50, neutralization of supernatant cytotoxicity on T-84 cells: 0.029 nM
[21]
  EC50, neutralization of supernatant cytotoxicity on T-84 cells: 0.029 nM

B2: humanized anti-C. difficile toxin B monoclonal antibody PA-41 (antibody, V domains shown)
VH: QVQLVQSGAEVKKPGASVKVSCKASGYPFTNYFMHWVRQAPGQRLEWIGRINPYNGATSYSLNFRDKATITLDKSASTAYMELSSLRSEDTAVYYCARSTITSPLLDFWGQGTLVTVSS
VL: EIVLTQSPATLSLSPGERATLSCRASQSVGTSIHWYQQKPGQAPRLLIKFASESISGIPARFSGSGSGTDFTLTISSLEPEDFAVYYCQQSNKWPFTFGQGTKLEIKR
[22]
  EC50, neutralization of toxin B cytotoxicity on CHO-K1 cells (toxin B 2 pg/mL): 6000 nM
  EC50, neutralization on IMR-90 cells: 5000 nM
[23]
  EC50, neutralization of supernatant cytotoxicity on CHO-K1 cells: 0.0077 nM
